To fix the notation:
B1: Hairpin Ribozyme (parent)
chain: GUCCUCUUUCACGUGCGCGUGAAAGAGAGAAGUGAACCAGAGAAACACACGUUGUGGUAUAUUACCUGGUA

Variants of B1 are the subject of the data set. Nature of the data set: self-cleavage, relative activity (ratio to wild type); higher = more cleavage; co-transcriptional.
On to GUCCUCUUUCACGUGCGCGUGAAAGACAGAAGUGCACCAGAGAAACACACGUUGUGGUAUAUUACCUGGUA [G27C A35C], for which the self-cleavage was found to be 0.143.

For the variant GUCCUCUUUCACGUGCGCGUGAAAGACAGAAGUGAACCCGAGAAACACACGUUGUGGUAUAUUACCUGGUA [G27C A39C], the self-cleavage was determined as 0.0945.

Take GUCCUCUUUCACGUGCGCGUGAAAGACAGAAGUGAACCAGAGAAACACACGUCGUGGUAUAUUACCUGGUA [G27C U53C]: the self-cleavage was 0.318.

On to GUCCUCUUUCACGUGCGCGUGAAAGACAGAAGUGAACCAGAGAAACCCACGUUGUGGUAUAUUACCUGGUA [G27C A47C], for which the self-cleavage came to 0.0432.

As to GUCCUCUUUCACGUGCGCGUGAAAGACAGAAGUGAACCAGAGAAACACACGUUGUUGUAUAUUACCUGGUA [G27C G56U], the self-cleavage was determined as 0.131.

Regarding GUCCUCUUUCACGUGCGCGUGAAAGACAGAAGUGAACCAGAGAAACACACGUUGUAGUAUAUUACCUGGUA [G27C G56A], the self-cleavage is 0.0609.

GUCCUCUUUCACGUGCGCGUGAAAGACAGAAGUGAAACAGAGAAACACACGUUGUGGUAUAUUACCUGGUA [G27C C37A]: the self-cleavage turned out to be 0.121.

For the variant GUCCUCUUUCACGUGCGCGUGAAAGACAGAAGUGAACCAGAGAAACAUACGUUGUGGUAUAUUACCUGGUA [G27C C48U], the self-cleavage is 0.231.

Turning to GUCCUCUUUCACGUGCGCGUGAAAGACAGAAGUGAACCAGAGAAACACACGUUCUGGUAUAUUACCUGGUA [G27C G54C], the self-cleavage was 0.151.

Consider GUCCUCUUUCACGUGCGCGUGAAAGACAGAAGUGAACCAGAGAAACACACGUUUUGGUAUAUUACCUGGUA [G27C G54U], for which the self-cleavage was determined as 0.192.

On to GUCCUCUUUCACGUGCGCGUGAAAGAAAGAAGUGAACCAGAGAAACACACGUUGUGGUAUAUUACCAGGUA [G27A U67A], for which the self-cleavage came out at 0.0995.

As to GUCCUCUUUCACGUGCGCGUGAAAGAAAGAAGUGAACCAGAGAAACACACGUUGUGGUAUAUUACCGGGUA [G27A U67G], the self-cleavage amounted to 0.175.

For the variant GUCCUCUUUCACGUGCGCGUGAAAGAAAGAAGUGAACCAGAGAAACACACGUUGUGGUAGAUUACCUGGUA [G27A U60G], the self-cleavage worked out at 0.213.

Regarding GUCCUCUUUCACGUGCGCGUGAAAGACAGAAGUGAACCAGAGAAACACAUGUUGUGGUAUAUUACCUGGUA [G27C C50U], the self-cleavage was 0.0886.

Turning to GUCCUCUUUCACGUGCGCGUGAAAGACAGAAGUGAACCAGAGAAACACAGGUUGUGGUAUAUUACCUGGUA [G27C C50G], the self-cleavage turned out to be 0.114.

As for GUCCUCUUUCACGUGCGCGUGAAAGAUAGAAGUGAACCAGAGAAACACACGUUGUGGUUUAUUACCUGGUA [G27U A59U], the self-cleavage stood at 0.146.

GUCCUCUUUCACGUGCGCGUGAAAGACAGAAGUGAACCAGAGAAACACACGUUGUGGUAUAUUACCUGGUU [G27C A71U]: the self-cleavage turned out to be 0.178.

As for GUCCUCUUUCACGUGCGCGUGAAAGACAGAAGUGAACCAGAGAAACACACGUUGUGGUAUAUUACCUGGUG [G27C A71G], the self-cleavage was found to be 0.143.

As to GUCCUCUUUCACGUGCGCGUGAAAGACAGAAGUGAACCAGGGAAACACACGUUGUGGUAUAUUACCUGGUA [G27C A41G], the self-cleavage was 0.234.

Consider GUCCUCUUUCACGUGCGCGUGAAAGACAGAAGUGACCCAGAGAAACACACGUUGUGGUAUAUUACCUGGUA [G27C A36C], for which the self-cleavage came out at 0.113.

Turning to GUCCUCUUUCACGUGCGCGUGAAAGACAGAAGUGAGCCAGAGAAACACACGUUGUGGUAUAUUACCUGGUA [G27C A36G], the self-cleavage came to 0.14.

On to GUCCUCUUUCACGUGCGCGUGAAAGACAGAAGUGAUCCAGAGAAACACACGUUGUGGUAUAUUACCUGGUA [G27C A36U], for which the self-cleavage worked out at 0.128.

Turning to GUCCUCUUUCACGUGCGCGUGAAAGACAGAAGUGAACCAGAGAAACACACGUUGUGGUAUAUUACUUGGUA [G27C C66U], the self-cleavage stood at 0.162.

For GUCCUCUUUCACGUGCGCGUGAAAGACAGAAGUGAACCAGAGAAACACACGUUGUGGUAUAUUACAUGGUA [G27C C66A], the self-cleavage was found to be 0.157.

With GUCCUCUUUCACGUGCGCGUGAAAGAAAGAAGUGAACCAGAGAAACACACGUUGUGGUAUAGUACCUGGUA [G27A U62G], the self-cleavage turned out to be 0.221.

Consider GUCCUCUUUCACGUGCGCGUGAAAGAAAGAAGUGAACCAGAGAAACACACGUUGUGGUAUACUACCUGGUA [G27A U62C], for which the self-cleavage amounted to 0.13.

With GUCCUCUUUCACGUGCGCGUGAAAGACAGAAGUGAACCAGAGAAACACACAUUGUGGUAUAUUACCUGGUA [G27C G51A], the self-cleavage came out at 0.266.

For the variant GUCCUCUUUCACGUGCGCGUGAAAGACAGAAGUCAACCAGAGAAACACACGUUGUGGUAUAUUACCUGGUA [G27C G34C], the self-cleavage stood at 0.971.

Take GUCCUCUUUCACGUGCGCGUGAAAGACAGAAGUUAACCAGAGAAACACACGUUGUGGUAUAUUACCUGGUA [G27C G34U]: the self-cleavage amounted to 0.779.

Turning to GUCCUCUUUCACGUGCGCGUGAAAGACAGAAGUAAACCAGAGAAACACACGUUGUGGUAUAUUACCUGGUA [G27C G34A], the self-cleavage turned out to be 0.161.

Take GUCCUCUUUCACGUGCGCGUGAAAGACAGAAGUGAACCAGAGAAACACACGUUGUGGUAUAUUGCCUGGUA [G27C A64G]: the self-cleavage was 0.186.

In the case of GUCCUCUUUCACGUGCGCGUGAAAGACAGAAGUGAACCAGAGAAACACACGUUGUGGUAUAUUACCUAGUA [G27C G68A], the self-cleavage was 0.105.

Turning to GUCCUCUUUCACGUGCGCGUGAAAGACAGAAGUGAACCAGAGAAACACACGUUGUGGUAUAUUACCUCGUA [G27C G68C], the self-cleavage was determined as 0.0698.

Consider GUCCUCUUUCACGUGCGCGUGAAAGAUAGAAGUGAACCAGAGAAACACACGUUGUGGUAUGUUACCUGGUA [G27U A61G], for which the self-cleavage is 0.171.

In the case of GUCCUCUUUCACGUGCGCGUGAAAGAUAGAAGUGAACCAGAGAAACACACGUUGUGGUAUUUUACCUGGUA [G27U A61U], the self-cleavage is 0.107.

With GUCCUCUUUCACGUGCGCGUGAAAGAUUGAAGUGAACCAGAGAAACACACGUUGUGGUAUAUUACCUGGUA [G27U A28U], the self-cleavage came to 0.148.

With GUCCUCUUUCACGUGCGCGUGAAAGAUAGUAGUGAACCAGAGAAACACACGUUGUGGUAUAUUACCUGGUA [G27U A30U], the self-cleavage worked out at 0.116.

Take GUCCUCUUUCACGUGCGCGUGAAAGACAGAAGUGAACCAGAGAAACACACGUUGUGGUAUAUUACCGGGUA [G27C U67G]: the self-cleavage was found to be 0.0952.

Values taken from the RNAGym collection of RNA variant scans (doi:10.7554/elife.80360).
